T1: Human ICOS extracellular domain fused to human Fc (human, UniProt Q9Y6W8 21-140)
T1 construct: Dimeric protein made in house from NCBI NP_036224.1; also called hICOS; hICOS Fc; not shown: human Fc region
T1 sequence: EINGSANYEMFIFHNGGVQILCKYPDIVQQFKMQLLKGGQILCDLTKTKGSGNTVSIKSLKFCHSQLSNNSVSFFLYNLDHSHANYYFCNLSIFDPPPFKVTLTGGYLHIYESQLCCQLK

T2: human ICOS-mFc (Chimerigen) (human, UniProt Q9Y6W8 21-140)
T2 construct: also called human ICOS receptor; human ICOS Receptor; not shown: mouse Fc of the bought construct
T2 sequence: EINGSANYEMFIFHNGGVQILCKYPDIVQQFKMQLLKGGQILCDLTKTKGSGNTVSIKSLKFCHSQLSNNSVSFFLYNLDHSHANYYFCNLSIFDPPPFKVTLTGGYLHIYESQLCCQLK

T3: mouse ICOS-mFc (Chimerigen) (mouse, UniProt Q9WVS0 21-141, limits assumed)
T3 construct: also called mouse ICOS receptor; mouse ICOS Receptor; not shown: mouse Fc of the bought construct
T3 sequence: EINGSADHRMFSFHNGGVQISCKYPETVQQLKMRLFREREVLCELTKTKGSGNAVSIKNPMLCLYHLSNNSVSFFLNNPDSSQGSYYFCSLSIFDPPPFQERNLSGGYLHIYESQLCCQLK

T4: Mouse ICOS extracellular domain fused to human Fc (mouse, UniProt Q9WVS0 21-141)
T4 construct: Made in house from NCBI NP_059508.2; also called mICOS; mICOS Fc; not shown: human Fc region
T4 sequence: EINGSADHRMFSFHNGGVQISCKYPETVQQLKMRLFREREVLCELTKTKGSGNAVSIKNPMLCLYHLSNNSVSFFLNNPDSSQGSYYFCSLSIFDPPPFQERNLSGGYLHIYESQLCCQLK

T5: Human ICOS on cells (human, UniProt Q9Y6W8 21-199)
T5 construct: the cell is named under assay; also called hICOS; human ICOS expressed on CHO-S cells
T5 sequence: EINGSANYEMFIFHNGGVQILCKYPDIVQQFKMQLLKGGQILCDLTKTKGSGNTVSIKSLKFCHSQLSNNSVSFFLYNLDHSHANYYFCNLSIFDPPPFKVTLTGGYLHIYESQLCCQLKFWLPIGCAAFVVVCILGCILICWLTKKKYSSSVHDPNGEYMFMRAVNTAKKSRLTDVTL

T6: Cynomolgus ICOS on activated cynomolgus T cells (cynomolgus, UniProt Q9Y6W8 21-195 (human entry))
T6 construct: also called NHP ICOS
T6 chain: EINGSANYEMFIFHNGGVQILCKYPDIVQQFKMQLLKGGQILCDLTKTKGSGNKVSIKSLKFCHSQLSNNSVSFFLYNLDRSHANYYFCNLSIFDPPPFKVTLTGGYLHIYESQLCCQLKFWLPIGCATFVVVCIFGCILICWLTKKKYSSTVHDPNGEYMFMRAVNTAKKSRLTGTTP


Key:
[1] = biological target: T1, Human ICOS extracellular domain fused …; experiment: SPR (ProteOn XPR36), human ICOS ECD-Fc captured, Fab analyte, pH 7.4, 37 C
Procedure: (§1) In addition, a comparison was performed of antibody:antigen binding affinity at different pH values. As before, the dimeric human ICOS protein, presented as the extracellular domain of ICOS fused to a human Fc region, was captured on the anti-human Fc capture surface created using the 3 antibody cocktail, immobilised on the GLC biosensor chip by primary amine coupling. SPR analysis of recombinantly expressed anti-ICOS Fabs was carried out on the ProteOn XPR36 Array system (Biorad). The Fab fragments were used as analyte to generate binding sensorgrams, which were double referenced with a buffer injection (i.e., 0 nM). The subsequent referenced sensorgrams were fitted to the 1:1 model inherent to the ProteOn analysis software. […] Data were fitted to the 1:1 model.

[2] = biological target: T1, Human ICOS extracellular domain fused …; experiment: SPR (ProteOn XPR36), human ICOS ECD-Fc captured, Fab analyte, pH 5.5, 37 C
Procedure: as §1

[3] = biological target: T2, human ICOS-mFc (Chimerigen); experiment: HTRF neutralisation of Alexa 647 human B7-H2 binding to human ICOS-mFc; human IgG4.PE; mean, n = 4
Procedure: (§2) 5 μl of ICOS receptor (human ICOS-mFc, 20 nM, 5 nM final or mouse ICOS-mFc 4 nM, 1 nM final (Chimerigen)) was added to required wells. Plate was incubated for 1 hr at room temperature (RT).
(§3) Finally, 5 μl of anti-mouse IgG donor mAb (Southern Biotech) labelled with europium cryptate (Cis Bio), 40 nM, 10 nM final was added to each well and the assay was left in the dark at RT to incubate for a further 2 hours. After incubation, assay was read on Envision plate reader (Perkin Elmer) using a standard HTRF protocol. […] Titration curves and IC50 values [M] were plotted using Graphpad (Prism). IC50 values were calculated by first transforming the data using equation X=Log(X). The transformed data was then fitted using nonlinear regression, using fitting algorithm, log (inhibitor) vs. response—variable slope (four parameters).

[4] = biological target: T3, mouse ICOS-mFc (Chimerigen); experiment: HTRF neutralisation of Alexa 647 mouse B7-H2 binding to mouse ICOS-mFc; human IgG4.PE; mean, n = 3
Procedure: as §2, §3

[5] = biological target: T4, Mouse ICOS extracellular domain fused …; experiment: SPR (ProteOn XPR36), Fc-tagged ICOS captured on anti-human IgG, Fab analyte, 25 C
Procedure: (§4) Fab affinities of the ICOS leads were generated by SPR using the ProteOn XPR3 6 (BioRad). An anti-human IgG capture surface was created on a GLC biosensor chip by primary amine coupling, immobilising three anti-human IgG antibodies (Jackson Labs 109-005-008, 109-006-008 and 309-006-008). […] Binding sensorgrams were double referenced using a buffer injection (i.e. 0 nM), and the data was fitted to the 1:1 model inherent to the ProteOn XPR36 analysis software. The assay was run at 25° C. and using HBS-EP as running buffer.

[6] = biological target: T1, Human ICOS extracellular domain fused …; experiment: as above
Procedure: as §4

[7] = biological target: T1, Human ICOS extracellular domain fused …; experiment: SPR (ProteOn XPR36), human ICOS ECD-Fc captured, Fab analyte, pH 5.5, 37 C (second run)
Procedure: as §1

[8] = biological target: T1, Human ICOS extracellular domain fused …; experiment: SPR (ProteOn XPR36), human ICOS ECD-Fc captured, Fab analyte, pH 7.6, 37 C
Procedure: as §1

[9] = biological target: T1, Human ICOS extracellular domain fused …; experiment: SPR (ProteOn XPR36), human ICOS ECD-Fc captured, Fab analyte, pH 7.6, 25 C
Human ICOS on cells [10] = biological target: T5, Human ICOS on cells; experiment: flow cytometry on activated human pan T cells (row Human), first donor column
Human ICOS on cells [11] = biological target: T5, Human ICOS on cells; experiment: flow cytometry on activated human pan T cells (row Human), second donor column
Human ICOS on cells [12] = biological target: T5, Human ICOS on cells; experiment: cell-based or functional assay
Human ICOS on cells [13] = biological target: T5, Human ICOS on cells; experiment: cell-based or functional assay; remark: listed apart in the source
Human ICOS on cells [14] = biological target: T5, Human ICOS on cells; experiment: cell-based or functional assay; remark: listed apart in the source
[15] = biological target: T6, Cynomolgus ICOS on activated cynomolgus …; experiment: flow cytometry, AF647 pre-labelled hIgG1 on activated cynomolgus pan T cells, donor 1
Procedure: PBMC from whole blood of 2 Mauritian cynomolgus macaques (Wickham Laboratories) were isolated by gradient centrifugation and cultured for 3 days with CD2/CD3/CD28 MACSiBeads (Miltenyi) to induce ICOS expression on their surface. […] Cells were also labelled with V450-CD3 to assess staining on T-cell subsets. Stained cells were run on Attune (Thermofisher) and staining intensity was presented as mean fluorescence intensity (MFI). EC50 was determined using GraphPad Prism.

Human ICOS on cells [16] = biological target: T5, Human ICOS on cells; experiment: flow cytometry on activated primary human pan T cells; naked hIgG1 detected with AF647 goat anti-human Fc
Procedure: Pan T-cells (CD3 cells) were isolated and cultured for 3 days with CD3/CD28 dynabeads (Thermofisher) to induce ICOS expression on their surface. […] Stained cells were ran on the Attune and staining intensity was presented as Mean of fluorescence intensity (MFI). EC50 was determined using GraphPad Prism.

[17] = biological target: T2, human ICOS-mFc (Chimerigen); experiment: HTRF neutralisation of Alexa 647 human B7-H2 binding to human ICOS-mFc; human IgG1; mean, n = 4
Procedure: as §2, §3

[18] = biological target: T3, mouse ICOS-mFc (Chimerigen); experiment: HTRF neutralisation of Alexa 647 mouse B7-H2 binding to mouse ICOS-mFc; human IgG1; mean, n = 3
Procedure: as §2, §3

Kd [1] [nM]	Kd [2] [nM]	Kd [5] [nM]	Kd [6] [nM]	Kd [7] [nM]	Kd [8] [nM]	Kd [9] [nM]	Binder	further results
41.8	26.6	–	–	–	–	–	STIM002-B Fab (Fab, V domains shown, Recombinantly expressed purified Fab) VH: QVQLVQSGGEVKKPGASVKVSCKASGYTFTSYGFSWVRQAPGQGLEWMGWISAYNGNTNYAQKLQGRVTMTTDTSTSTAYMELRSLRSDDTAVYYCARSTYFYGSGTLYGMDVWGQGTTVTVSS VL: DIVMTQSPLSLPVTPGEPASISCRSSQSLLHSDGYNCLDWYLQKPGQSPQLLIYLGSTRASGFPDRFSGSGSGTDFTLKISRVEAEDVGVYYCMQALQTPCSFGQGTKLEIK	–
–	–	–	–	–	–	–	STIM005 human IgG4.PE (antibody, V domains shown, Human IgG4.PE (null-effector) format) VH: QVQLVQSGAEVKKPGASVKVSCKASGYTFNSYGIIWVRQAPGQGLEWMGWISVHNGNTNCAQKLQGRVTMTTDTSTSTAYMELRSLRTDDTAVYYCARAGYDILTDFSDAFDIWGHGTMVTVSS VL: DIQMTQSPSSLSASVGDRVTITCRASQNINNFLNWYQQKEGKGPKLLIYAASSLQRGIPSTFSGSGSGTDFTLTISSLQPEDFATYICQQSYGIPWVGQGTKVEIK	IC50 [3]: 1.6 nM; IC50 [4]: 0.3 nM
1.71	1.02	0.4	1.3	1.15	1.98	1.31	STIM003 Fab (Fab, V domains shown, Recombinantly expressed purified Fab) VH: EVQLVESGGGVVRPGGSLRLSCVASGVTFDDYGMSWVRQAPGKGLEWVSGINWNGGDTDYSDSVKGRFTISRDNAKNSLYLQMNSLRAEDTALYYCARDFYGSGSYYHVPFDYWGQGILVTVSS VL: EIVLTQSPGTLSLSPGERATLSCRASQSVSRSYLAWYQQKRGQAPRLLIYGASSRATGIPDRFSGDGSGTDFTLSISRLEPEDFAVYYCHQYDMSPFTFGPGTKVDIK	–
–	–	–	–	–	–	–	STIM001 human IgG1 (antibody, V domains shown, Human IgG1 format; Conjugated with AF647 in the direct staining assays, coupled to beads or plates in the MJ cell assays; also called STIM001 (hIgG1); STIM001 hIgG1) VH: QVQVVQSGAEVKKPGASVKVSCKASGYTFSTFGITWVRQAPGQGLEWMGWISAYNGDTNYAQNLQGRVIMTTDTSTSTAYMELRSLRSDDTAVYYCARSSGHYYYYGMDVWGQGTTVTVSS VL: DIVMTQSPLSLPVTPGEPASISCRSSQSLLHSNEYNYLDWYLQKPGQSPQLLIFLGSNRASGVPDRFSGSGSGTDFTLKITRVEAEDVGIYYCMQSLQTPLTFGGGTKVEIKR	EC50 (Human ICOS on cells [10]): 221 nM; EC50 (Human ICOS on cells [11]): 121 nM; EC50 (Molar unit), NK primary cell ADCC assay on ICOS-transfected CCRF-CEM cells, 4 hour time point, Donor 4 (Human ICOS on cells [12]): 3.92 pM; EC50 (Molar unit), NK primary cell ADCC assay on ICOS-transfected CCRF-CEM cells, 4 hour time point, Donor 5 (Human ICOS on cells [12]): 3.95 pM; EC50 (Molar unit), NK primary cell ADCC assay on ICOS-transfected CCRF-CEM cells, 4 hour time point, Donor 6 (Human ICOS on cells [12]): 3.75 pM; EC50 (Molar unit), NK primary cells ADCC assay on MJ cells, 2 hour time point, Donor 1 (Human ICOS on cells [13]): 121 pM; EC50 (Molar unit), NK primary cells ADCC assay on MJ cells, 2 hour time point, Donor 2 (Human ICOS on cells [13]): 529 pM; EC50 (Molar unit), NK primary cell ADCC assay on MJ cells, 2 hour time point, Donor 1 (Human ICOS on cells [14]): 121 pM; EC50 (Molar unit), NK primary cell ADCC assay on MJ cells, 2 hour time point, Donor 2 (Human ICOS on cells [14]): 529 pM; EC50 (Molar unit), NK primary cell ADCC assay on MJ cells, 2 hour time point, Donor 3 (Human ICOS on cells [14]): 2.92 nM; EC50 [15]: 222 nM; EC50 (Human ICOS on cells [16]): 17 nM; IC50 [17]: 2.2 nM; IC50 [18]: 6.5 nM
63.5	73.1	407	44	80.3	42.6	44	STIM001 Fab (Fab, V domains shown, Recombinantly expressed purified Fab) VH: QVQVVQSGAEVKKPGASVKVSCKASGYTFSTFGITWVRQAPGQGLEWMGWISAYNGDTNYAQNLQGRVIMTTDTSTSTAYMELRSLRSDDTAVYYCARSSGHYYYYGMDVWGQGTTVTVSS VL: DIVMTQSPLSLPVTPGEPASISCRSSQSLLHSNEYNYLDWYLQKPGQSPQLLIFLGSNRASGVPDRFSGSGSGTDFTLKITRVEAEDVGIYYCMQSLQTPLTFGGGTKVEIK	–
–	–	318	13.8	–	–	–	STIM006 Fab (Fab, V domains shown, Purified Fab) VH: QVQLVESGGGLVKPGGSLRLSCAASGFTFSDYFMSWIRQAPGKGLEWISYISSSGSTIYYADSVRGRFTISRDNAKYSLYLQMNSLRSEDTAVYYCARDHYDGSGIYPLYYYYGLDVWGQGTTVTVSS VL: not shown	–

From US20180066058A1 (published 2018)
